Measured values: PMC11650696

How the values were obtained:
[1] = target: TLR5 (UniProt O60602)
[2] = target: Naip5 and Naip6 (Naip5/6) (mouse (endogenous in BMDMs))
[3] = target: TLR5 (UniProt O60602); remark: listed apart in the source

UniProt O60602, sequence (O60602 21-858): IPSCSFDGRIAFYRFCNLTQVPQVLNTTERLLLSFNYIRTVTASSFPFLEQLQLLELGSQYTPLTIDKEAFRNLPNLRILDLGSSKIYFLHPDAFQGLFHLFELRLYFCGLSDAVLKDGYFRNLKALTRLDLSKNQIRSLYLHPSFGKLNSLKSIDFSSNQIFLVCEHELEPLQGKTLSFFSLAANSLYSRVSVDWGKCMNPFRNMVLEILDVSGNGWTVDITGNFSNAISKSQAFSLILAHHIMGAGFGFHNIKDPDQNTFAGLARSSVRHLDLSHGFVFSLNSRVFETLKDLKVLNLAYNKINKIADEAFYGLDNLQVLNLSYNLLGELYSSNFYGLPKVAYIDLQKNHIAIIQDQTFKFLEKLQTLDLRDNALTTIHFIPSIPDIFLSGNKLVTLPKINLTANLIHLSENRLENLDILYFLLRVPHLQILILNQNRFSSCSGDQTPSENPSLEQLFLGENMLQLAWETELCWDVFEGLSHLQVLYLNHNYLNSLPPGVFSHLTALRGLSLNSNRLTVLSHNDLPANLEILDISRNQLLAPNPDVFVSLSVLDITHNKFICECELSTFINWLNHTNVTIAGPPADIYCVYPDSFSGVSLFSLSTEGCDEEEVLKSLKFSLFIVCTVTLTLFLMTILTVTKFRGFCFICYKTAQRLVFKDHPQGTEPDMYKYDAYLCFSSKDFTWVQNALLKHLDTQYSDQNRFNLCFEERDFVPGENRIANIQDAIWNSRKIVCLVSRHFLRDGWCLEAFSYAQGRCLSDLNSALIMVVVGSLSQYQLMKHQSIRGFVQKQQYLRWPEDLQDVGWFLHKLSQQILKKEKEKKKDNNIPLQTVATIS

| Substance | TLR5 stimulatory activity, EC50 (NF-κB luciferase reporter assay, stably transfected CHO K1 cells) [1] [ng/mL] | Inflammasome EC50 (IL-1β secretion of LPS-primed mouse BMDMs after transfection of the protein) [2] [ng/mL] | TLR5 EC50 (NF-κB luciferase reporter assay, stably transfected CHO K1 cells) [3] [ng/mL] |
| --- | --- | --- | --- |
| FliC flagellin monomers isolated from S. Typhimurium strain SL1344 (ΔflgM) (from UniProt P06179 1-495) (natural protein) | 1.1 | 2 | 1.2 |
| FliC^ΔD3 (from UniProt P06179 1-495) (natural protein) |  |  | 0.1 |
